Test results: US20160130327A1 (Merck Sharp & Dohme, published 2016)

Experiments:
[1] = molecular target: T1, revertant virus (AD169 CMV with the pentameric gH complex restored); test: cell-based or functional assay
[2] = molecular target: T1, revertant virus (AD169 CMV with the …); test: antibody-titration EIA, coated revertant virions
recombinant gB = molecular target: T2, recombinant gB (human cytomegalovirus (CMV), UniProt P06473 32-700); test: EIA on recombinant gB
T2 construct: also called gB protein; recombinant gB antigen
T2 sequence (P06473 32-700 limits assumed): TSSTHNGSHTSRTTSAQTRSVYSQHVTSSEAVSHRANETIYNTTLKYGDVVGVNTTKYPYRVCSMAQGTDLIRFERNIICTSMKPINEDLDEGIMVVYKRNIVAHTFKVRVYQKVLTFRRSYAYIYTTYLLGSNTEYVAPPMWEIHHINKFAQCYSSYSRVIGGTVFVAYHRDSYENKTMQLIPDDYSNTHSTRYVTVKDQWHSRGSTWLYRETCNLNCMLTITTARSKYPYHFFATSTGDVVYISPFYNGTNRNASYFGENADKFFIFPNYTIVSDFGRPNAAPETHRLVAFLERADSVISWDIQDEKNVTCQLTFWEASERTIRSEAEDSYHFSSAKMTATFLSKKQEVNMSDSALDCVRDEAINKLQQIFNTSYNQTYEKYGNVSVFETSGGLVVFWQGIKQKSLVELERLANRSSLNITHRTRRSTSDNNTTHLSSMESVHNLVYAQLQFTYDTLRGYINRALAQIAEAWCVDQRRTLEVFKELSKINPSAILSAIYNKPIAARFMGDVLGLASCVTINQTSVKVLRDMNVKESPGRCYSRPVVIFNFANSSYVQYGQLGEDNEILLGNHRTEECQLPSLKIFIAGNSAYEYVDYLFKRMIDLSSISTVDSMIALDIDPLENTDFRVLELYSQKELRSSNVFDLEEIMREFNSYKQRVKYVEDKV

Binder | Neutralization in ARPE-19 cells EC50 [1] [µg/mL] | Neutralization in MRC-5 cells EC50 [1] [µg/mL] | EC50 [2] [µg/mL] | binding result (recombinant gB)
57.4 (antibody, V domains shown, rabbit hybridoma mAb (not the humanized version); also called clone 57.4; mAb 57.4) VH: QSLEESGGGLVKPGGTLTLTCTASGFSFSSVYDMSWVRQAPGKGLEWIASIVTGSRTTWYASWAKGRFTVSKTSSTTVTLQMTSLTAADTATYFCARGEYGHDGYVDGTMGLGLWGPGTLVTISS VL: ELDLTQTPASVEAAVGGTVAIKCQASQSIRRHLSWYQQKPGQRPKLLIYGASNLASGVSSRFKGSGSGTEFTLTISDLECADAATYYCQCTYGVGFSSTYGDAFGGGTELEIL | 0.01 | 100 | 0.09 | no binding (tested: 1 µg/ml)
58.5 (antibody, V domains shown, rabbit hybridoma mAb (not the humanized version); also called clone 58.5) VH: QSLEESGGRLVTPGGSLTLTCTVSGFSLSAYSVSWVRQAPGKGLEWIGIIGHSGNTYYASWAKGRFTISKTSTTVDLKITSLTTEDTATYFCAREDYRYGDYGYYWDFNFWGPGTLVTISS VL: ELDLTQTASPVSAPVGGTVTINCQASQNIYSNLAWYQQKPGQPPKLLIYGASTLASGVSSRFKGSRSGTEFTLTISDLECADAATYYCQSYVYSSSTADTFGGGTEVVVK | 0.02 | 100 | 0.59 | no binding (tested: 1 µg/ml)
70.7 (antibody, V domains shown, rabbit hybridoma mAb; also called clone 70.7) VH: QSVEESRGRLVTPGTPLTLTCTASGFSLSSYHMIWVRQAPGKGLEWIGYINYNNNPYYATWAKGRFTISRTSTTVALKITSPTTEDSATYFCARAAGNYYVGALNLWGPGTLVTISS VL: ERDMTQTPASVEVAVGGTVTIKCQASQSIGNLLAWYQQKPGQRPKLLIYDASTLASGVPSRFKGSGSGTEFTLTISGVQCADAATYYCQQGYMITNVENAFGGGTEVVVK | 0.03 | 0.09 | 1.46 | no binding (tested: 1 µg/ml)
270.7 (antibody, V domains shown, rabbit hybridoma mAb; also called clone 270.7) VH: QSVEESGGRLVTPGTPLALTCTASRFSLSSNHMIWVRQAPGKGLEWIGYINYNNNPYYATWAKGRFTISRTSTTVALKITSPTTEDTATYFCARAAGNYYVGALNLWGPGTLVTISS VL: ELVMTQTPASVEVAVGGTVTIKCQASQSIGNLLAWYQQEPGQRPKLLIYDASTLASGVPSRFKGSGSGTEFTLTISGVQCADAATYYCQQGYMITNVENAFGGGTNVEIK | 0.02 | 0.06 | 0.68 | no binding (tested: 1 µg/ml)
124.4 (antibody, V domains shown, rabbit hybridoma mAb; also called clone 124.4) VH: QSLEESGGRLVTPGTPLTLTCTVSGFSLSSCNMGWVRQAPGEGLEWIGYIAASGDAFYASWAKGRFTISKTSSTTVDLRITSPTTEDTAAYFCARGSYAAYNAWDLWGPGTLVTVSS VL: ELDMTQTASPVSAAVGGTVTINCQSSQSVYNKNYLSWYQQKPGQPPKLLIYGASTLPSGVPSRFKGSGSGTQFTLTISEVQCDDAATYYCQGYYSGYIYAFGGGTEVVVK | 0.05 | 0.08 | 1.72 | no binding (tested: 1 µg/ml)
210.4 (antibody, V domains shown, rabbit hybridoma mAb; also called clone 210.4) VH: QSVEESGGRLVTPGTPLTLTCTVSGFSLSTNAMSWVRQAPGKGLEWIGYIWSGGSTYYASWAKGRFAISKTSTTVDLKITSPTTEDTATYFCAKNGDNGQLDLWGQGTLVTVSS VL: ELVLTQTPSPVSAAVGGTVTINCQTSQSLYNNNFLSWYQQKPGQPPKLLIYKASTLESGVPSRFKGSGSGTQFTLTISGVQCDDAATYYCQGEFSCSSADCNAFGGGTEVVVK | 100 | 100 | 0.03 | 
212.6 (antibody, V domains shown, rabbit hybridoma mAb; also called clone 212.6) VH: QSLEESGGRLVTPGTPLTLTCTVSGFSLSSYAMSWVRQAPGKGLEWIGIIGSSGNTYYASWAKGRFTISKTSTTVDLKITSPTTEDTATYFCARGGYSYDDYTPFDLWGPGTLVTVSS VL: ELVLTQSPSLSASLGTTARLTCTLSTGYSVGKYPLVWLQQVPGRPPRYLLTYHTEEFKHQGSGVHSRFSGSKDTSENAGVLSISGLQPEDEADYYCATAHATESSLHYVFGGGTQLTVT | 3.71 | 100 | 52.9 | 
223.4 (antibody, V domains shown, rabbit hybridoma mAb; also called clone 223.4) VH: QSLEESGGRLVTPGTPLTLTCTVSGFSLSAYSVSWVRQAPGKGLEWIGIIGHSGNTYYANWAKGRFTISKTSTTVDLKITSLTIEDTATYFCAREDYRYGDYGYYWDFNFWGPGTLVTISS VL: ELVMTQTPSPVSAPVGGTVTISCQASRSVYNENYVAWFQHRPGQPPKLLIYTTSILASGVPSRFKGRGSGTQFTLTISDVQCDDAATYYCAGDYDDNEENAFGGGTELEIL | 0.06 | 100 | 1.54 | no binding (tested: 1 µg/ml)
240.8 (antibody, V domains shown, rabbit hybridoma mAb; also called clone 240.8) VH: QSVEESGGGLVTPGGTLTLTCGVSGIDLSANEMGWVRQAPGEGLEWIGTLSYHNIPHYATWAKGRFTISKTSTTVDLKITSPTSADTATYFCGRVFTSTSFDPWGPGTLVTISS VL: ELVMTHPPASVSAPVGGTVTIKCQASHNIGSRLPWYQQEPGQPPKLLIYRTSTLASGVPSRFTGSGYGTEFTLTISDLECADAATYYCQDHDDISHAFGGGTNVEIK | 0.79 | 100 | 2.6 | 
276.10 (antibody, V domains shown, rabbit hybridoma mAb (not the humanized version); also called clone 276.10) VH: QSLEESGGDLVQPEGSLTLTCTASGFSFSGSYYMCWVRQAPGTGLEWIACIDGDLSGSAYYANWAKGRFTISGTSSTTVTLQVTSLTAADTATYFCAREGPVGVGSIYLGFDLWGPGTLVTISS VL: ELDLTQTPASVEVPVGGTVTIKCQASHNINTYLSWYQQKPGQPPKLLIYRASDLASGVSSRFSGSGSGTQFTLTISGVECADAATYYCQQGFNSLNVENVFGGGTEVVVK | 0.01 | 100 | 0.25 | no binding (tested: 1 µg/ml)
316.2 (antibody, V domains shown, rabbit hybridoma mAb; also called clone 316.2) VH: QSVKESEGRLVTPGTPLTLTCTASGFSLSSYHMIWVRQAPGKGLEWIGYINNNDNPYYATWAKGRFTISRTSTTVALKITSPTTKDTATYFCARAAGNYYVGALNLWGPGTLVTISS VL: ELVLTQTPASVEVAVGGTVTIKCQASQTIGNLLGWYQQKPGRPPKLLIYDASTLASGVPSRFKGSGSATEFTLTIRGVQCDDAATYYCQQGYMITNVENAFGGGTEVVVK | 0.02 | 0.08 | 1.06 | no binding (tested: 1 µg/ml)
324.4 (antibody, V domains shown, rabbit hybridoma mAb; also called clone 324.4) VH: QSVKESEGRLVTPGTPLTLTCTVSGFSPSSYNMGWVRQAPGEGLEWIGYISTSGNTFYASWAKGRFTISKTSTTVDLRITSPTTEDTATYFCARGSYVAYNAWDLWGPGTLVTISS VL: ELDLTQTASPVSAAVGGTVTINCQSSQSVYNNNYLSWYQQKPGQPPKLLIYGASTLASGVPSRFKGSGSGTQFTLTISEVQCDDAATYYCQGYYSGYIYAFGGGTEVVVK | 0.1 | 0.21 | 4.09 | no binding (tested: 1 µg/ml)
347.3 (antibody, V domains shown, rabbit hybridoma mAb; also called clone 347.3) VH: QSLEESEGRLVTPGTPLTLTCTVSGIDLSTYAMNWVRQAPGKGLEWIGIIGSSGGAYYASWAKGRCTISKTSTTVDLKITSPTTEDTATYFCAVSLYTYDDYADYFLWGPGTLVTISS VL: ELVLTQSPSLSASLGTTARLTCTLSTGYSVGKYPLVWLQQVPGRPPRYLLTYHTEEFKHQGSGVHSRFSGSKDTSENSFVLRIFGLQPEDEADYYCVTAHPTESSLHYVFGGGTQLTVT | 0.03 | 100 | 0.34 | no binding (tested: 1 µg/ml)
350.1 (antibody, V domains shown, rabbit hybridoma mAb; also called clone 350.1; mAb 350.1) VH: QSLEESGGDLVKPGASLTLTCTASGFSFSNSYYMCWVRQAPGKGLEWIVCIYAGSSGFTYYANWAKGRFTVSKTSSTTVTLQMTSLTAADTATYFCARDRGYYTYGYAGYGYGMDLWGPGTLVTISS VL: ELDMTQTPSPVSTAVGGTVSISCQSGQNVWTNDYLSWYQQKPGQPPKLLIYRASTLASGVPSRFKGSGSGTQFTLTISDVQCDDAATYYCGGTFLSNGDNGFGGGTEVVVK | 100 | 100 | 0.02 | 
